# Patent US20150344570A1 (published 2015)
# Experiments:
# [1] = molecular target: T1, FcγRIa extracellular domain with C-terminal His tag (human, UniProt P12314 16-292); assay: SPR (Biacore), relative binding, HeCon Ab = 100
# T1 construct: extracellular domain; Expressed in FreeStyle293 cells; analyte in the SPR assay; also called FcgRI; 1a
# [2] = molecular target: T2, FcγRIIb extracellular domain with C-terminal His tag (human, UniProt P31994 43-217); assay: SPR (Biacore), relative binding, HeCon Ab = 100
# T2 construct: extracellular domain; Expressed in FreeStyle293 cells; analyte in the SPR assay; also called FcgRIIb; 2b
# T2 sequence (looked up): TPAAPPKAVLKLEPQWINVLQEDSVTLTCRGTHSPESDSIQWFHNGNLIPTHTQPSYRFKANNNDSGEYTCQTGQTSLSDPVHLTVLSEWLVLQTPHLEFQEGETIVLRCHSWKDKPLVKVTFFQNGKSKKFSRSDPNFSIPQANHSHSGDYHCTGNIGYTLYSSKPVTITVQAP
# T1 sequence (P12314 16-292): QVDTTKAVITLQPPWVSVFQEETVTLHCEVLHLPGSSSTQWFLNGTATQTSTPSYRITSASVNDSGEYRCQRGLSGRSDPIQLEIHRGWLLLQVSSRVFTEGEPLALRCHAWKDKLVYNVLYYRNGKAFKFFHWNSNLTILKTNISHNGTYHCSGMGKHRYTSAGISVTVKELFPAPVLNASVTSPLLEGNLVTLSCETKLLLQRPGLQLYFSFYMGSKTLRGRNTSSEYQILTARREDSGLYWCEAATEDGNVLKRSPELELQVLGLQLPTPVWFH
Binder,He/Con_1a [1],He/Con_2b [2]
"GpH7-A5/GpH7-B3 variant E269_19Q/GpL16-k0 (He Ab) (antibody, human IgG1, kappa, He Ab: mutation in one H chain only) heavy 1: not shown heavy 2: not shown light: DIVMTQSPLSLPVTPGEPASISCQASESLVHSNRNTYLHWYLQKPGQSPQLLIYKVSNRFSGVPDRFSGSGSGTDFTLKISRVEAEDVGVYYCSQNTHVPPTFGQGTKVEIERTVAAPSVFIFPPSDEQLKSGTASVVCLLNNFYPREAKVQWKVDNALQSGNSQESVTEQDSKDSTYSLSSTLTLSKADYEKHKVYACEVTHQGLSSPVTKSFNRGEC",105 % of HeCon Ab (=100),44.3 % of HeCon Ab (=100)
"GpH7-A5/GpH7-B3 variant H268_06M/GpL16-k0 (He Ab) (antibody, human IgG1, kappa, He Ab: mutation in one H chain only) heavy 1: not shown heavy 2: not shown light: DIVMTQSPLSLPVTPGEPASISCQASESLVHSNRNTYLHWYLQKPGQSPQLLIYKVSNRFSGVPDRFSGSGSGTDFTLKISRVEAEDVGVYYCSQNTHVPPTFGQGTKVEIERTVAAPSVFIFPPSDEQLKSGTASVVCLLNNFYPREAKVQWKVDNALQSGNSQESVTEQDSKDSTYSLSSTLTLSKADYEKHKVYACEVTHQGLSSPVTKSFNRGEC",105 % of HeCon Ab (=100),65.7 % of HeCon Ab (=100)
"GpH7-A5/GpH7-B3 variant G236_20W/GpL16-k0 (He Ab) (antibody, human IgG1, kappa, He Ab: mutation in one H chain only) heavy 1: not shown heavy 2: not shown light: DIVMTQSPLSLPVTPGEPASISCQASESLVHSNRNTYLHWYLQKPGQSPQLLIYKVSNRFSGVPDRFSGSGSGTDFTLKISRVEAEDVGVYYCSQNTHVPPTFGQGTKVEIERTVAAPSVFIFPPSDEQLKSGTASVVCLLNNFYPREAKVQWKVDNALQSGNSQESVTEQDSKDSTYSLSSTLTLSKADYEKHKVYACEVTHQGLSSPVTKSFNRGEC",105 % of HeCon Ab (=100),58.2 % of HeCon Ab (=100)
"GpH7-A5/GpH7-B3 variant H268_04F/GpL16-k0 (He Ab) (antibody, human IgG1, kappa, He Ab: mutation in one H chain only) heavy 1: not shown heavy 2: not shown light: DIVMTQSPLSLPVTPGEPASISCQASESLVHSNRNTYLHWYLQKPGQSPQLLIYKVSNRFSGVPDRFSGSGSGTDFTLKISRVEAEDVGVYYCSQNTHVPPTFGQGTKVEIERTVAAPSVFIFPPSDEQLKSGTASVVCLLNNFYPREAKVQWKVDNALQSGNSQESVTEQDSKDSTYSLSSTLTLSKADYEKHKVYACEVTHQGLSSPVTKSFNRGEC",106 % of HeCon Ab (=100),89.6 % of HeCon Ab (=100)
"GpH7-A5/GpH7-B3 variant E269_20W/GpL16-k0 (He Ab) (antibody, human IgG1, kappa, He Ab: mutation in one H chain only) heavy 1: not shown heavy 2: not shown light: DIVMTQSPLSLPVTPGEPASISCQASESLVHSNRNTYLHWYLQKPGQSPQLLIYKVSNRFSGVPDRFSGSGSGTDFTLKISRVEAEDVGVYYCSQNTHVPPTFGQGTKVEIERTVAAPSVFIFPPSDEQLKSGTASVVCLLNNFYPREAKVQWKVDNALQSGNSQESVTEQDSKDSTYSLSSTLTLSKADYEKHKVYACEVTHQGLSSPVTKSFNRGEC",105 % of HeCon Ab (=100),42.5 % of HeCon Ab (=100)
"GpH7-A5/GpH7-B3 variant H268_07I/GpL16-k0 (He Ab) (antibody, human IgG1, kappa, He Ab: mutation in one H chain only) heavy 1: not shown heavy 2: not shown light: DIVMTQSPLSLPVTPGEPASISCQASESLVHSNRNTYLHWYLQKPGQSPQLLIYKVSNRFSGVPDRFSGSGSGTDFTLKISRVEAEDVGVYYCSQNTHVPPTFGQGTKVEIERTVAAPSVFIFPPSDEQLKSGTASVVCLLNNFYPREAKVQWKVDNALQSGNSQESVTEQDSKDSTYSLSSTLTLSKADYEKHKVYACEVTHQGLSSPVTKSFNRGEC",108 % of HeCon Ab (=100),88.9 % of HeCon Ab (=100)
"GpH7-A5/GpH7-B3 variant G236_02A/GpL16-k0 (He Ab) (antibody, human IgG1, kappa, He Ab: mutation in one H chain only) heavy 1: not shown heavy 2: not shown light: DIVMTQSPLSLPVTPGEPASISCQASESLVHSNRNTYLHWYLQKPGQSPQLLIYKVSNRFSGVPDRFSGSGSGTDFTLKISRVEAEDVGVYYCSQNTHVPPTFGQGTKVEIERTVAAPSVFIFPPSDEQLKSGTASVVCLLNNFYPREAKVQWKVDNALQSGNSQESVTEQDSKDSTYSLSSTLTLSKADYEKHKVYACEVTHQGLSSPVTKSFNRGEC",100 % of HeCon Ab (=100),96.5 % of HeCon Ab (=100)
"GpH7-A5/GpH7-B3 variant H268_12R/GpL16-k0 (He Ab) (antibody, human IgG1, kappa, He Ab: mutation in one H chain only) heavy 1: not shown heavy 2: not shown light: DIVMTQSPLSLPVTPGEPASISCQASESLVHSNRNTYLHWYLQKPGQSPQLLIYKVSNRFSGVPDRFSGSGSGTDFTLKISRVEAEDVGVYYCSQNTHVPPTFGQGTKVEIERTVAAPSVFIFPPSDEQLKSGTASVVCLLNNFYPREAKVQWKVDNALQSGNSQESVTEQDSKDSTYSLSSTLTLSKADYEKHKVYACEVTHQGLSSPVTKSFNRGEC",106 % of HeCon Ab (=100),89.8 % of HeCon Ab (=100)
"GpH7-A5/GpH7-B3 variant H268_14T/GpL16-k0 (He Ab) (antibody, human IgG1, kappa, He Ab: mutation in one H chain only) heavy 1: not shown heavy 2: not shown light: DIVMTQSPLSLPVTPGEPASISCQASESLVHSNRNTYLHWYLQKPGQSPQLLIYKVSNRFSGVPDRFSGSGSGTDFTLKISRVEAEDVGVYYCSQNTHVPPTFGQGTKVEIERTVAAPSVFIFPPSDEQLKSGTASVVCLLNNFYPREAKVQWKVDNALQSGNSQESVTEQDSKDSTYSLSSTLTLSKADYEKHKVYACEVTHQGLSSPVTKSFNRGEC",112 % of HeCon Ab (=100),86 % of HeCon Ab (=100)
"GpH7-A5/GpH7-B3 variant P271_11K/GpL16-k0 (He Ab) (antibody, human IgG1, kappa, He Ab: mutation in one H chain only) heavy 1: not shown heavy 2: not shown light: DIVMTQSPLSLPVTPGEPASISCQASESLVHSNRNTYLHWYLQKPGQSPQLLIYKVSNRFSGVPDRFSGSGSGTDFTLKISRVEAEDVGVYYCSQNTHVPPTFGQGTKVEIERTVAAPSVFIFPPSDEQLKSGTASVVCLLNNFYPREAKVQWKVDNALQSGNSQESVTEQDSKDSTYSLSSTLTLSKADYEKHKVYACEVTHQGLSSPVTKSFNRGEC",103 % of HeCon Ab (=100),90.2 % of HeCon Ab (=100)
"GpH7-A5/GpH7-B3 variant P271_06M/GpL16-k0 (He Ab) (antibody, human IgG1, kappa, He Ab: mutation in one H chain only) heavy 1: not shown heavy 2: not shown light: DIVMTQSPLSLPVTPGEPASISCQASESLVHSNRNTYLHWYLQKPGQSPQLLIYKVSNRFSGVPDRFSGSGSGTDFTLKISRVEAEDVGVYYCSQNTHVPPTFGQGTKVEIERTVAAPSVFIFPPSDEQLKSGTASVVCLLNNFYPREAKVQWKVDNALQSGNSQESVTEQDSKDSTYSLSSTLTLSKADYEKHKVYACEVTHQGLSSPVTKSFNRGEC",102 % of HeCon Ab (=100),77.5 % of HeCon Ab (=100)
"GpH7-A5/GpH7-B3 variant P271_07I/GpL16-k0 (He Ab) (antibody, human IgG1, kappa, He Ab: mutation in one H chain only) heavy 1: not shown heavy 2: not shown light: DIVMTQSPLSLPVTPGEPASISCQASESLVHSNRNTYLHWYLQKPGQSPQLLIYKVSNRFSGVPDRFSGSGSGTDFTLKISRVEAEDVGVYYCSQNTHVPPTFGQGTKVEIERTVAAPSVFIFPPSDEQLKSGTASVVCLLNNFYPREAKVQWKVDNALQSGNSQESVTEQDSKDSTYSLSSTLTLSKADYEKHKVYACEVTHQGLSSPVTKSFNRGEC",102 % of HeCon Ab (=100),76.8 % of HeCon Ab (=100)
"GpH7-A5/GpH7-B3 variant H268_08L/GpL16-k0 (He Ab) (antibody, human IgG1, kappa, He Ab: mutation in one H chain only) heavy 1: not shown heavy 2: not shown light: DIVMTQSPLSLPVTPGEPASISCQASESLVHSNRNTYLHWYLQKPGQSPQLLIYKVSNRFSGVPDRFSGSGSGTDFTLKISRVEAEDVGVYYCSQNTHVPPTFGQGTKVEIERTVAAPSVFIFPPSDEQLKSGTASVVCLLNNFYPREAKVQWKVDNALQSGNSQESVTEQDSKDSTYSLSSTLTLSKADYEKHKVYACEVTHQGLSSPVTKSFNRGEC",107 % of HeCon Ab (=100),67.8 % of HeCon Ab (=100)
"GpH7-A5/GpH7-B3 variant L234_04F/GpL16-k0 (He Ab) (antibody, human IgG1, kappa, He Ab: mutation in one H chain only) heavy 1: not shown heavy 2: not shown light: DIVMTQSPLSLPVTPGEPASISCQASESLVHSNRNTYLHWYLQKPGQSPQLLIYKVSNRFSGVPDRFSGSGSGTDFTLKISRVEAEDVGVYYCSQNTHVPPTFGQGTKVEIERTVAAPSVFIFPPSDEQLKSGTASVVCLLNNFYPREAKVQWKVDNALQSGNSQESVTEQDSKDSTYSLSSTLTLSKADYEKHKVYACEVTHQGLSSPVTKSFNRGEC",101 % of HeCon Ab (=100),99.8 % of HeCon Ab (=100)
"GpH7-A5/GpH7-B3 variant P271_03V/GpL16-k0 (He Ab) (antibody, human IgG1, kappa, He Ab: mutation in one H chain only) heavy 1: not shown heavy 2: not shown light: DIVMTQSPLSLPVTPGEPASISCQASESLVHSNRNTYLHWYLQKPGQSPQLLIYKVSNRFSGVPDRFSGSGSGTDFTLKISRVEAEDVGVYYCSQNTHVPPTFGQGTKVEIERTVAAPSVFIFPPSDEQLKSGTASVVCLLNNFYPREAKVQWKVDNALQSGNSQESVTEQDSKDSTYSLSSTLTLSKADYEKHKVYACEVTHQGLSSPVTKSFNRGEC",102 % of HeCon Ab (=100),74.8 % of HeCon Ab (=100)
"GpH7-A5/GpH7-B3 variant P271_04F/GpL16-k0 (He Ab) (antibody, human IgG1, kappa, He Ab: mutation in one H chain only) heavy 1: not shown heavy 2: not shown light: DIVMTQSPLSLPVTPGEPASISCQASESLVHSNRNTYLHWYLQKPGQSPQLLIYKVSNRFSGVPDRFSGSGSGTDFTLKISRVEAEDVGVYYCSQNTHVPPTFGQGTKVEIERTVAAPSVFIFPPSDEQLKSGTASVVCLLNNFYPREAKVQWKVDNALQSGNSQESVTEQDSKDSTYSLSSTLTLSKADYEKHKVYACEVTHQGLSSPVTKSFNRGEC",102 % of HeCon Ab (=100),59.5 % of HeCon Ab (=100)
"GpH7-A5/GpH7-B3 variant H268_11K/GpL16-k0 (He Ab) (antibody, human IgG1, kappa, He Ab: mutation in one H chain only) heavy 1: not shown heavy 2: not shown light: DIVMTQSPLSLPVTPGEPASISCQASESLVHSNRNTYLHWYLQKPGQSPQLLIYKVSNRFSGVPDRFSGSGSGTDFTLKISRVEAEDVGVYYCSQNTHVPPTFGQGTKVEIERTVAAPSVFIFPPSDEQLKSGTASVVCLLNNFYPREAKVQWKVDNALQSGNSQESVTEQDSKDSTYSLSSTLTLSKADYEKHKVYACEVTHQGLSSPVTKSFNRGEC",106 % of HeCon Ab (=100),83 % of HeCon Ab (=100)
"GpH7-A5/GpH7-B3 variant L234_15Y/GpL16-k0 (He Ab) (antibody, human IgG1, kappa, He Ab: mutation in one H chain only) heavy 1: not shown heavy 2: not shown light: DIVMTQSPLSLPVTPGEPASISCQASESLVHSNRNTYLHWYLQKPGQSPQLLIYKVSNRFSGVPDRFSGSGSGTDFTLKISRVEAEDVGVYYCSQNTHVPPTFGQGTKVEIERTVAAPSVFIFPPSDEQLKSGTASVVCLLNNFYPREAKVQWKVDNALQSGNSQESVTEQDSKDSTYSLSSTLTLSKADYEKHKVYACEVTHQGLSSPVTKSFNRGEC",100 % of HeCon Ab (=100),96.3 % of HeCon Ab (=100)
"GpH7-A5/GpH7-B3 variant P271_02A/GpL16-k0 (He Ab) (antibody, human IgG1, kappa, He Ab: mutation in one H chain only) heavy 1: not shown heavy 2: not shown light: DIVMTQSPLSLPVTPGEPASISCQASESLVHSNRNTYLHWYLQKPGQSPQLLIYKVSNRFSGVPDRFSGSGSGTDFTLKISRVEAEDVGVYYCSQNTHVPPTFGQGTKVEIERTVAAPSVFIFPPSDEQLKSGTASVVCLLNNFYPREAKVQWKVDNALQSGNSQESVTEQDSKDSTYSLSSTLTLSKADYEKHKVYACEVTHQGLSSPVTKSFNRGEC",104 % of HeCon Ab (=100),88 % of HeCon Ab (=100)
